Target: recombinant FGF23 protein (species not stated for the assay)
Assay: sKL detection assay (sandwich): FGF23 coated, sKL sample, then Fc-FGFR1c, anti-Fc-HRP, A450

- fold binding activity against Com.sKL: 7 fold
Substance: FLAG-tagged soluble klotho (sKL) (receptor)
